Test results published in US6878521B1, “Fibril-blocking peptide, a method for preventing fibril formation” (The University of Chicago, priority 1999, dated 2005).
“Also recorded” adds a separate entry of the source. Where a SMILES comes first, the peptide text is derived from it. [ ]: non-standard residue; d: D form. Nle = CCCC[C@H](N)C(=O)O

Experiments:
[1] = system: SMA LC expressed in COS cells; assay: aggresome formation in SMA-transfected COS cells, immunofluorescence; type: cell-based; conditions: for proportion of COS cells containing aggresomes: SMA-transfected, immunofluorescence, Hsp70 co-expressed, with or without ALLN; for cells exhibiting aggresomes: anti-kappa stained cells, peptides added with ALLN
Procedure: COS-1 cells were transiently transfected with FuGENE 6 transfection reagent (Roche Molecular Biochemicals, Indianapolis, Ind.) according to manufacturer's instructions and analyzed two days later. Overnight incubations with various concentrations of ALLN (SEQ. ID. NO. 11) (Sigma Chemical Co., St. Louis, Mo.), 10 μM lactacystin (Calbiochem, La Jolla, Calif.), 10 μg/ml nocodazole (Sigma), or various concentrations of peptides were begun the day following transfection.
A peptide was synthesized that fused an HIV TAT sequence (YGRKKRRQRRR) (SEQ. ID. NO. 8) with the VL derived sequence which the inventors have shown inhibit fiber formation in vitro, discussed supra. To ensure adequate flexibility and solubility, additional VL sequence was added on both sides of the active 7-mer, generating the following sequence for the TAT-TISS peptide: NH2-[…]-OH. (SEQ. ID. NO. 9) A control peptide was synthesized (TAT-PASS) in which the critical hydrophobic residues were substituted with alanines and the extended structure of the peptide destroyed by the addition of a proline (NH2-[…]-OH). (SEQ. ID. NO. 10) cells were treated with either peptide 24 h after transfection and incubated overnight in the presence of the indicated concentrations of ALLN. (SEQ. ID. NO. […]) Cells were then harvested for western blotting or immunofluorescence as described above.
Without ALLN (SEQ. ID. NO. 11) treatment 30% of the COS cells contained aggresomes as assayed by immunofluorescence.
Lastly, the inventors determined that the decrease in steady state level of SMA in the presence of TAT-TISS (SEQ. ID. NO. 9) peptide correlated with a decrease in the frequency of aggresome formation, by scoring anti-kappa stained cells.

transthyretin = transthyretin (Homo sapiens, UniProt P02766); conditions: Peterson et al. 1998; cited from earlier work
[2] = target: SMA, recombinant kappa-IV light chain variable domain (VL) (human); assay: cell-based or functional assay
[3] = target: T1, SMA (kappa-IV recombinant VL) (Homo sapiens, UniProt P06312, K56R/P66L/Q115H/T120H); assay: agitation-based in vitro SMA fibril formation assay (fluorescence); type: biochemical; conditions: for inhibition of SMA fibril formation: in vitro, result in words
T1 construct: two kappa-IV recombinant VL, LEN and SMA; made in house
Procedure: Further, the inventors used an agitation-based in vitro assay to assemble fibrils from two kappa-IV recombinant VL, LEN and SMA.
Fibril formation was measured over time at each peptide concentration. The extent of SMA fibril formation at 45 hours in the presence of various concentration so fthe peptides is plotted relative to that of SMA alone at 45 hours.
In the BiP reactions, SMA fibril formation was assayed in the range of 1 to 1000 moles SMA per mole of fibril antagonist.

λ6 VL protein = assay: in vitro fibril assembly of λ6 VL protein; type: biochemical
[4] = system: SMA LC expressed in COS-1 cells; assay: biochemical assay of soluble and insoluble SMA in transfected COS-1 cells (western blot); type: cell-based; conditions: for intracellular aggregation of SMA: in cells, result in words; for amount of SMA recovered: 50 μM peptide, overnight, 1-10 μg/ml ALLN
SMA = assay: co-immunoprecipitation with SMA using anti-kappa antibody; type: binding, human; conditions: co-transfected, metabolically labeled cells, soluble fractions
Procedure: Culture, metabolic labeling, lysis and immunoprecipitation of COS-1 cells were performed as described in Dul et al. Immunol. […] The following antibodies were used in immunoprecipitations: rabbit anti-human kappa antibody (Bethyl Labs, Montgomery, Tex.); goat anti-human kappa (Caltag, Burlingame, Calif.); mouse anti-ubiquitin (StressGen, Victoria, BC, Canada).
Endogenous Hsp70 was also associated with SMA, but was not dramatically enriched.

Chain of BiP (binding protein), endoplasmic reticulum chaperone, recombinant wild type (P07823 19-654): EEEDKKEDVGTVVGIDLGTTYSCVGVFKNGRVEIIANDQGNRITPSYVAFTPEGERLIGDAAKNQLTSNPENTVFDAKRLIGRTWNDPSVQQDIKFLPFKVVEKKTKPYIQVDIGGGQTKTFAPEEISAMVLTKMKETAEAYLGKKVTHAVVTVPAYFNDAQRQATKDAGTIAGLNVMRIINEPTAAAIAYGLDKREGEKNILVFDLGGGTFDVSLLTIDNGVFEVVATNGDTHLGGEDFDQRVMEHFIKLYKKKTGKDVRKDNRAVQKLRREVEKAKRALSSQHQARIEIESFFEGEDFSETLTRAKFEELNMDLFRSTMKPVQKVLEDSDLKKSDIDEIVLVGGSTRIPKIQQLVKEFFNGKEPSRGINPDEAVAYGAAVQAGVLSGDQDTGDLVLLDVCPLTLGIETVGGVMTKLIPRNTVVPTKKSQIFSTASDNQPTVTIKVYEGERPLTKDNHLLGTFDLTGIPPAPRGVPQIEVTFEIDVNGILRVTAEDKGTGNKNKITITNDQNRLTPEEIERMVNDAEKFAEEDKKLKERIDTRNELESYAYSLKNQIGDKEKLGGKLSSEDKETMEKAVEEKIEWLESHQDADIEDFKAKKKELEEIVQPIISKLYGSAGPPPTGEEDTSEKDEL

Which “proportion of COS cells containing aggresomes” value [1] does the source give for CCCC[C@@H](C=O)NC(=O)[C@H](CC(C)C)NC(=O)[C@H](CC(C)C)NC(C)=O [ALLN, reference compound] (Ac-Leu-Leu-[Nle]-aldehyde) here?
Its value is 75%.

What about the cells exhibiting aggresomes [1] of the same compound?
Its cells exhibiting aggresomes is “about 65%”.

Which “inhibition of conformational changes of transthyretin” value (transthyretin) does the source give for O=C(O)c1ccccc1Nc1cccc(C(F)(F)F)c1 [flufenamic acid] here?
The value was “inhibits the conformational changes”.

What does the source list for “BiP (binding protein), endoplasmic reticulum chaperone, recombinant wild type”?
SMA fibril formation (fluorescence units) at 30 SMA:1 BiP [2]: < 10 percent; SMA fibril formation (fluorescence) at 100:1 stoichiometric ratio [2]: 75 percent; SMA fibril formation (fluorescence) at 300:1 stoichiometric ratio [2]: 100 percent; inhibition of SMA ordered aggregation at 75 hours, 1 mole BiP per 100 moles SMA [2]: 50%

What does the source list for FTLKISR?
inhibition of SMA fibril formation [3]: inhibited as well as FTLTISS; inhibition of fibril assembly of λ6 VL protein (λ6 VL protein): inhibited fibril assembly

Which “inhibition of SMA fibril formation” value [3] does the source give for “FTLTISS [Phe71-Thr72-Leu73-Thr74-Ile75-Ser76-Ser77, peptide of positions 71 through 77 of human kappa-4 light chain variable domain]” here?
The value was “fibril blocking; also recorded: markedly inhibited the aggregation”.

What about the “intracellular aggregation of SMA” value [4] of the same compound?
The value was “effective in reducing intracellular aggregation”.

Which “effect of prebinding BiP with peptide on BiP's suppression of fibril assembly” value ([3]; BiP incubated with peptide before aggregation reaction) does the source give for FYQLALT [reference compound] here?
Its value is “blocked the chaperone's ability to suppress fibril assembly”.

What does the source list for “H-YGRKKRRQRRRSGSGTDATAPASSLQAED-OH [TAT-PASS, reference compound]”?
cells exhibiting aggresomes [1]: no significant effect; inhibition of SMA fibril formation [3]: does not inhibit fibril formation in vitro; effect on yield of SMA ([4]; 10 μg/ml ALLN, highest peptide concentration used): only a marginal effect; amount of SMA recovered [4]: no effect

What does the source list for “H-YGRKKRRQRRRSGSGTDFTLTISSLQAED-OH [TAT-TISS]”?
cells exhibiting aggresomes [1]: 25%; ubiquitinated forms of SMA [4]: diminished; amount of SMA recovered [4]: dramatically reduced

What does the source list for “Hsp70: heat shock protein 70, a family member of BiP; cytosolic chaperone”?
proportion of COS cells containing aggresomes [1]: 12%; frequency of aggresome formation ([1]; co-expression with SMA, result in words): decreases the frequency of aggresome formation; inhibition of SMA fibril formation [3]: blocked fibril formation; inhibition of SMA fibril formation ([3]; listed as heat shock protein (hsp)70): did inhibit fibril formation; ubiquitinated forms of SMA [4]: decrease in the pool of ubiquitinated SMA; intracellular aggregation of SMA [4]: decreases its aggregation; association with SMA by co-immunoprecipitation (SMA): specifically co-immunoprecipitated with SMA

What does the source list for Lysozyme [reference compound]?
inhibition of SMA fibril formation [3]: no appreciable fibril blocking ability; inhibition of SMA fibril formation ([3]; listed as lysozome): did not significantly decrease fibril formation

Which “inhibition of SMA fibril formation” value [3] does the source give for PKLLIYWA here?
Its value is “partial inhibition”.

For TDFTLTI, which “inhibition of SMA fibril formation” value [3] is on record?
Its value is “markedly inhibited the aggregation”.

Which “inhibition of SMA fibril formation” value [3] does the source give for TRIFSKL [reference compound] here?
The value was “ineffective fibril blocker”.

With albumin [reference compound] as the compound, how does the “inhibition of SMA fibril formation” value [3] read?
Its value is “did not significantly decrease fibril formation”.

For ferritin [reference compound], which “inhibition of SMA fibril formation” value [3] is on record?
Its value is “did not significantly decrease fibril formation”.
